Target: the molecule itself
Test: SDS-stable oligomer band of the purified protein

B1: GST-CNF1 N-terminal fragment (aa 1-342) (domain or fragment)
chain: MGNQWQQKYLLEYNELVSNFPSPERVVSDYIKNCFKTDLPWFSRIDPDNAYFICFSQNRSNSRSYTGWDHLGKYKTEVLTLTQAALINIGYRFDVFDDANSSTGIYKTKSADVFNEENEEKMLPSEYLHFLQKCDFAGVYGKTLSDYWSKYYDKFKLLLKNYYISSALYLYKNGELDEREYNFSMNALNRSDNISLLFFDIYGYYASDIFVAKNNDKVMLFIPGAKKPFLFKKNIADLRLTLKELIKDSDKQQLLSQHFSLYSRQDGVSYAGVNSVLHAIENDGNFNESYFLYSNKTLSNKDVFDAIAISVKKRSFSDGDIVIKSNSEAQRDYALTILQTIL
stoichiometry N: 4

Source: PMC3894216 (PLoS Pathogens, 2014)
